# Laboratory results reported in the supplement of paper PMC11811203.
# B1: THAP1; numbered along this chain (parent)
# chain: MVQSCSAYGCKNRYDKDKPVSFHKFPLTRPSLCKEWEAAVRRKNFKPTKYSSICSEHFTPDCFKRECNNKLLKENAVPTIFLCTEPHDKKEDLLEPQEQLPPPPLPPPVSQVDAAIGLLMPPLQTPVNLSVFCDHNYTVEDTMHQRKRIHQLEQQVEKLRKKLKTAQQRCRRQERQLEKLKEVVHFQKEKDDVSERGYVILPNDYFEIVEVPA
# Variants of: B1
# Assay: THAP1 transcriptional activity (GFP+/GFP- enrichment relative to wild-type constructs) (ratio to WT); higher = more THAP1 activity (PSMB5 reporter activation)
# Settings: with PSMB5 promoter-GFP reporter
# Procedure: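 Deep mutational scan of human THAP1. Site-saturation single amino acid variant library (residues 2-213) was expressed by lentivirus at MOI ~0.3 in THAP1-knockout HEK-293T cells carrying an endogenous PSMB5 promoter-GFP knock-in reporter. Five days post-transduction, BFP+ cells were FACS-sorted into GFP dim and GFP bright populations and variants were counted by Illumina sequencing. Activity is the GFP-bright/GFP-dim read fold change, mean of 2 replicates, divided by the mean fold change of wild-type (synonymous) constructs in the same screen pool; WT = 1.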
row,Variant,THAP1 transcriptional activity
1,MVQSCSAYGCKNRYDKDKPVSFHKFPLTRPSLCKEWEAAVRRKNFKPTKYSSICSEHFTPDCFKRECNNKLLKENAVPTIFLCTEPHDKEEDLLEPQEQLPPPPLPPPVSQVDAAIGLLMPPLQTPVNLSVFCDHNYTVEDTMHQRKRIHQLEQQVEKLRKKLKTAQQRCRRQERQLEKLKEVVHFQKEKDDVSERGYVILPNDYFEIVEVPA [K90E],2.91
2,MVQSCSAYGCKNRYDKDKPVSFHKFPLTRPSLCKEWEAAVRRKNFKPTKYSSICSEHFTPDCFKRECLNKLLKENAVPTIFLCTEPHDKKEDLLEPQEQLPPPPLPPPVSQVDAAIGLLMPPLQTPVNLSVFCDHNYTVEDTMHQRKRIHQLEQQVEKLRKKLKTAQQRCRRQERQLEKLKEVVHFQKEKDDVSERGYVILPNDYFEIVEVPA [N68L],0.131
3,MVQSCSAYGCKNRYDKDKPVSFHKFPLTRPSLCKEWEAAVRRKNFKPTKYSSICSEHFTPDCFKRECNNKLLKENAVPTIFLCTEPHDKKEDLLEPQEQLPPPPLPPPVSQVDAAIGLLMPPLQTPVNLSVFCDHNYTVEDTMHQRKRIHQLEQQVEILRKKLKTAQQRCRRQERQLEKLKEVVHFQKEKDDVSERGYVILPNDYFEIVEVPA [K158I],0.55
4,MVQSCSAYGCKNRYDKDKPVSFHKFPKTRPSLCKEWEAAVRRKNFKPTKYSSICSEHFTPDCFKRECNNKLLKENAVPTIFLCTEPHDKKEDLLEPQEQLPPPPLPPPVSQVDAAIGLLMPPLQTPVNLSVFCDHNYTVEDTMHQRKRIHQLEQQVEKLRKKLKTAQQRCRRQERQLEKLKEVVHFQKEKDDVSERGYVILPNDYFEIVEVPA [L27K],0.111
5,MVQSCSAYGCKNRYDKDKPVSFHKFPLTRPSLCKEWEAAVRRKNFKPTKYSSICSEHFTPDCFKRECNNKLLKENAVPTIFLCTEPHDKKEDLLEPQEQLPPPPLPPPVSQVDAAIGLLMPRLQTPVNLSVFCDHNYTVEDTMHQRKRIHQLEQQVEKLRKKLKTAQQRCRRQERQLEKLKEVVHFQKEKDDVSERGYVILPNDYFEIVEVPA [P122R],0.328
6,MVQSCSAYGCKNRYDKDKPVSFHKFPLTRPSLCKEWEAAVRRKNFKPTKYSSICSEHFTPDCFKRECNNKLLKENAVPTIFLCTEPHDKKEDHLEPQEQLPPPPLPPPVSQVDAAIGLLMPPLQTPVNLSVFCDHNYTVEDTMHQRKRIHQLEQQVEKLRKKLKTAQQRCRRQERQLEKLKEVVHFQKEKDDVSERGYVILPNDYFEIVEVPA [L93H],1.01
7,MVQSCSAYGCKNRYDKDKPVSFHKFPLTRPSLCKEWEAAVRRKNFKPTKYSSICSEHFTPDCFKRECNNKLLKENAVPTIFLCTEPHDKKEDLLEPQEQLPPPPLPPPVSQVDAAIGLLMPPLQTPVNLSVFCDHNYTVEQTMHQRKRIHQLEQQVEKLRKKLKTAQQRCRRQERQLEKLKEVVHFQKEKDDVSERGYVILPNDYFEIVEVPA [D141Q],0.581
8,MVQSCSAYGCKNRYDKDKPVSFHKFPLTRPSLCKEWEAAVRRKNFKPTKYSSACSEHFTPDCFKRECNNKLLKENAVPTIFLCTEPHDKKEDLLEPQEQLPPPPLPPPVSQVDAAIGLLMPPLQTPVNLSVFCDHNYTVEDTMHQRKRIHQLEQQVEKLRKKLKTAQQRCRRQERQLEKLKEVVHFQKEKDDVSERGYVILPNDYFEIVEVPA [I53A],0.136
9,MVQSCSAYGCKNRYDKDKPVSFHKFPLTRPSLCKEWEAAVRRKNFKPTKYSSICSEHFTPDCFKRECNNKLLKENAVPTIFLCTEPHDKKEDLLEPQEQLPPPPLPPPVSQVDAAIGLLMPPLQTPVNLSVFCDHNYTVEDTCHQRKRIHQLEQQVEKLRKKLKTAQQRCRRQERQLEKLKEVVHFQKEKDDVSERGYVILPNDYFEIVEVPA [M143C],1.09
10,MVQSCSAYGCKNRYDKDKPVSFHKFPLTRPSLCKEWEAAVRRKNFKPTKYSSICSEHFTPDCFKRECNNKLLKENAVPTIFLCTEPHDKKEDLLEPQEQLPPPPLPPPVSQTDAAIGLLMPPLQTPVNLSVFCDHNYTVEDTMHQRKRIHQLEQQVEKLRKKLKTAQQRCRRQERQLEKLKEVVHFQKEKDDVSERGYVILPNDYFEIVEVPA [V112T],1.06
11,MVQSCSAYGCKNRYDKDKPVSFHKFPLTRPSLCKEWEAAVRRKVFKPTKYSSICSEHFTPDCFKRECNNKLLKENAVPTIFLCTEPHDKKEDLLEPQEQLPPPPLPPPVSQVDAAIGLLMPPLQTPVNLSVFCDHNYTVEDTMHQRKRIHQLEQQVEKLRKKLKTAQQRCRRQERQLEKLKEVVHFQKEKDDVSERGYVILPNDYFEIVEVPA [N44V],0.111
12,MVQSCSAYGCKNRYDKDKPVSFHKFPLTRPSLCKEWEAAVRRKNFKPTKYSSICSEHFTPDCFKRECNNKLLKENAVPTIFLCTEPHDKKEDLLEPQEQLPPPPLPPPVSQVDAAIGLLMPPLQTPVNLSVFCDHNYTVEDYMHQRKRIHQLEQQVEKLRKKLKTAQQRCRRQERQLEKLKEVVHFQKEKDDVSERGYVILPNDYFEIVEVPA [T142Y],0.248
13,MVQSCSAYGCKNRYDKDKPVSFHKFPLTRPSLCKEWEAAVRRKNFKPTKYSSICSEHFTPDCFKRECNNKLNKENAVPTIFLCTEPHDKKEDLLEPQEQLPPPPLPPPVSQVDAAIGLLMPPLQTPVNLSVFCDHNYTVEDTMHQRKRIHQLEQQVEKLRKKLKTAQQRCRRQERQLEKLKEVVHFQKEKDDVSERGYVILPNDYFEIVEVPA [L72N],0.129
14,MVQSCSAYGCKNRYDKDKPVSFHKFPLTRPSLCKEWEAAVRRKNFKPTKYSSICSEHFTPDCFKRECNNKLLKENAVPTIFLCTEPHDKKEDLLEPQEQLPPPPLPPPVSQVDAAIGLLMPPLQTPVNLSVFCDHNYTVEDTMHQRKRIHQLEQQVEKLRKKLKTAQQRCRRQERQLEKLKEVVHFQKEKDDVSERGYVILPPDYFEIVEVPA [N203P],0.855
